Source: PMC8684761 (Molecular Biology of the Cell, 2021)

Biological target: T1, 6His-She1 C-terminal fragment (residues 194-338) (S. cerevisiae, UniProt P38200 194-338)
T1 sequence (looked up): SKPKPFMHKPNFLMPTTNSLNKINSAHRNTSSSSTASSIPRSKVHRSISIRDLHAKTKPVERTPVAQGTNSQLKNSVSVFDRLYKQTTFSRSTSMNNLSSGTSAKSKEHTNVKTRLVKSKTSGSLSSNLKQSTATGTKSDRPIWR
Assay: pull-down

- binding result: binds
B1: peptide encompassing the C-terminus of Tub1 (amino acids 415-447), wild type (peptide)
peptide: not shown
